Laboratory results from US20130270124, “BIOSENSOR ELECTRODE FOR HER2 DETECTION, A METHOD FOR PRODUCING IT, A METHOD FOR REGENERATING IT” (RESEARCH & BUSINESS FOUNDATION SUNGKYUNKWAN UNIVERSITY, published 2013).

Legend:
[1] = molecular target: Bovine serum albumin (BSA) (Bos taurus, UniProt P02769 P02769:25-607); assay: impedance; 20 ug/ml BSA in PBS, 30 min, Ret unchanged; conditions: tags: Sigma-Aldrich; label: 5'-amine, amide-coupled to MPA on gold electrode
Description: (§1) A conventional three-electrode cell was used for performing electrochemical impedance spectroscopy (EIS). Ag/AgCl and a platinum (Pt) plate were respectively used as a reference electrode and an opposite electrode. In every modification and detection stage, an operating electrode was detected by EIS in a 2 mM Fe(CN)6^{3-/4-}(1:1)/PBS solution. An amplitude-sine wave of about 10 mV was applied in a frequency range of about 0.1 Hz to 100 kHz.
EIS data was measured to investigate specificities of the aptamer with respect to other proteins existing blood, such as BSA and IgG. The EIS data of the aptamer-attached electrode was measured (block line), and then the aptamer-attached electrode was immersed in 20 μg/ml concentrations of BSA solution and IgG solution each for 30 minutes. […] Then, when the aptamer-attached electrode was immersed in a solution in which 30 ng/ml HER2 was added to a 20 μg/ml BSA/IgG solution for 30 minutes, the Rₑₜ value increased.

HER2 (ErbB2) = HER2 (ErbB2) (UniProt P04626 P04626:23-652); assay: electrochemical impedance on Au/MPA/aptamer electrode; dRet linear 5-50 ng/ml (y=18.97x+160.2, R2=0.99882), saturates 50-500 ng/ml; PBS, 30 min; conditions: tags: R&D Systems; label: 5'-amine, amide-coupled to MPA on gold electrode
Description: as §1
After immobilization of the NH₂-ssDNA, the modified gold electrode was incubated in a series of HER2/PBS solutions of different concentrations for 30 minutes each, and then washed with DI water. A series of HER2/PBS solutions of 5 ng/ml to 500 ng/ml concentrations were fabricated in order to confirm a range of soluble concentration.
After the aptamer (NH₂-ssDNA) was immobilized, the modified gold electrode was incubated in a series of HER2/PBS solutions of a range 5.0 to 50 ngmL⁻¹. The modified gold electrode was detected by EIS after each incubation. The difference of electron-transfer resistance ΔRₑₜ between the aptamer-modified gold electrode and the HER2-incubated gold electrode was obtained from a signal formed by a reaction between the immobilized aptamer and the HER2.

Bovine serum albumin (BSA), sequence (P02769 25-607, one chain of several): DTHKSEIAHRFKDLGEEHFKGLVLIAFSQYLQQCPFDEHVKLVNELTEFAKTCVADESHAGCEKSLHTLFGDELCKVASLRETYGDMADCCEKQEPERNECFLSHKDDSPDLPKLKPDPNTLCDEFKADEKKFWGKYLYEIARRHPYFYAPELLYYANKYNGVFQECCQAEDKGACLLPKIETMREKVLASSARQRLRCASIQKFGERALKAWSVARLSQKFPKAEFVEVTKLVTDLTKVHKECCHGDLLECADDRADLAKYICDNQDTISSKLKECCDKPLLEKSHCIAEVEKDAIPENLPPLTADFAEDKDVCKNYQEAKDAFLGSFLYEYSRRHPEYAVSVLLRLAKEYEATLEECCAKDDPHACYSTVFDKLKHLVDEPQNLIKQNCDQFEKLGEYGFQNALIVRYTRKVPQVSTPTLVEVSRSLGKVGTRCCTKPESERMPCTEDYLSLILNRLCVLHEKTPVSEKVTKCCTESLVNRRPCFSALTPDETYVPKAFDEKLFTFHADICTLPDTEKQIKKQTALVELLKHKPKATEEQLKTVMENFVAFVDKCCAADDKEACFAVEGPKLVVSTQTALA

B1: HER2 NH2-aptamer (ssDNA)
DNA: CTTCTGCCCGCCTCCTTCCTGGGGCCTGGATACGGATTGGTAAGGATTAGTAGGGGGCATAGCTGGAGACGAGATAGGCGGACACT
modifications: 5'-amino modifier C6
**Q.** Does B1 bind [1]?
**A.** Result: no binding

**Q.** Does B1 bind (HER2 (ErbB2))?
**A.** Result: binds
